Legend:
Human GLP-1R (human) = Human GLP-1R (human) (UniProt P43220)
Mouse GLP-1R (mouse) = Mouse GLP-1R (mouse) (UniProt O35659)
Mouse GLP-1R (mouse), sequence (O35659 22-463): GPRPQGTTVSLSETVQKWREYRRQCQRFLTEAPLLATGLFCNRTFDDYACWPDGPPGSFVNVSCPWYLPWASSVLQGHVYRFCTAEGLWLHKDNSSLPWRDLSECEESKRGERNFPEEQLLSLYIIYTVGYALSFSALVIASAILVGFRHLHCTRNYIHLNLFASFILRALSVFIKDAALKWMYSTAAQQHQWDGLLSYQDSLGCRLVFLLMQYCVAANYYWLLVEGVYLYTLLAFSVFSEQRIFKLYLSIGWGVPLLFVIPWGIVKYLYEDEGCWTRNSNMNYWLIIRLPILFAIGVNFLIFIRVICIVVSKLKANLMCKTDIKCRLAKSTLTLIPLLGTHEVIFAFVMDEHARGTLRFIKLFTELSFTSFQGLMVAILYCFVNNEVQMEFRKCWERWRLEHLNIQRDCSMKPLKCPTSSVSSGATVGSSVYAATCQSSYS

Human GLP-1R (human), sequence (P43220 24-463): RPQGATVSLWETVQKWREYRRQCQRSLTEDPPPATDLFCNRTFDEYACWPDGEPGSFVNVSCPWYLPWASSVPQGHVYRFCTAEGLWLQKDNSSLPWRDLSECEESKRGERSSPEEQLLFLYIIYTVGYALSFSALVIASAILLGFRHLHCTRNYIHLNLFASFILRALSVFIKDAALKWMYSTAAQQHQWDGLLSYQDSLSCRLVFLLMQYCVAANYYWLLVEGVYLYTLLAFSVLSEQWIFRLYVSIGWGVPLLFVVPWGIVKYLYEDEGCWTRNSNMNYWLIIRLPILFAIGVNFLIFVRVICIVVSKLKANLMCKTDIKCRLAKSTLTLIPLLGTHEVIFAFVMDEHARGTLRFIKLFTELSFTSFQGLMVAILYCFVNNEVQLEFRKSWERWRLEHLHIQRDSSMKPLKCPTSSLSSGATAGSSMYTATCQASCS

Substance | EC50 (nM), Human GLP-1R activation, in vitro cell assay (Human GLP-1R (human)) | Emax (%), Mouse GLP-1R activation, in vitro cell assay (Mouse GLP-1R (mouse)) | EC50 (nM), Mouse GLP-1R activation, in vitro cell assay (Mouse GLP-1R (mouse))
Exendin-4 (from UniProt P26349 48-87) (peptide) | 0.052 nM | 100% | 
Liraglutide (peptide) |  | 89% | 0.185 nM

From publication PMC6412877, “Novel Site-Specific Fatty Chain-Modified GLP-1 Receptor Agonist with Potent Antidiabetic Effects” (Molecules, 2019)
